Experiments:
[1] = molecular target: T1, native human coagulation factor IX (human, UniProt P00740 47-461); assay: NANEX column: 30 mL human plasma recirculated over immobilised CA11143; A280, SDS-PAGE and western blot [D00046 FIG. 42B; D00047 FIG. 42C]
T1 construct: Native protein captured from plasma; also called FIX
Protocol: (§1) 30 mL of human recovered plasma treated with ACD anticoagulant was loaded on this NANEX column by recirculation for 120 minutes. […] FIG. 42B) SDS-PAGE of representative fractions of the purification and FIG. 42C) the western blot of these fractions. MW, molecular weight marker (PageRuler™ Prestained Protein Ladder); and asterisk (*), commercial native human coagulation factor IX (used as control).
(§2) The purification process was monitored by measuring the absorbance at 280 nm (Protein absorption) (FIGS. 42A-42C). The elution peak was collected in 750 μl fractions and the fractions were analyzed in SDS/PAGE gel and by western blot including a commercial human coagulation factor IX as a positive control (FIGS. 42A-42C). Regeneration of the column was obtained by 5 CV of 200 mM Glycine buffer pH 2.3.

[2] = molecular target: T2, CA16607 eGFP-tagged human recombinant glucocorticoid receptor (eGFP-6His-TEV-GR) (human); assay: NANEX column: HEK293T lysate with GFP-GR on immobilised CA15816; A280/A488, SDS-PAGE, western blot [D00049 FIG. 44B]
T2 construct: Expressed in HEK293T cells, captured from the lysate; also called GFP-GR; eGFP-GR
T2 sequence (chain, as listed by the source limits assumed): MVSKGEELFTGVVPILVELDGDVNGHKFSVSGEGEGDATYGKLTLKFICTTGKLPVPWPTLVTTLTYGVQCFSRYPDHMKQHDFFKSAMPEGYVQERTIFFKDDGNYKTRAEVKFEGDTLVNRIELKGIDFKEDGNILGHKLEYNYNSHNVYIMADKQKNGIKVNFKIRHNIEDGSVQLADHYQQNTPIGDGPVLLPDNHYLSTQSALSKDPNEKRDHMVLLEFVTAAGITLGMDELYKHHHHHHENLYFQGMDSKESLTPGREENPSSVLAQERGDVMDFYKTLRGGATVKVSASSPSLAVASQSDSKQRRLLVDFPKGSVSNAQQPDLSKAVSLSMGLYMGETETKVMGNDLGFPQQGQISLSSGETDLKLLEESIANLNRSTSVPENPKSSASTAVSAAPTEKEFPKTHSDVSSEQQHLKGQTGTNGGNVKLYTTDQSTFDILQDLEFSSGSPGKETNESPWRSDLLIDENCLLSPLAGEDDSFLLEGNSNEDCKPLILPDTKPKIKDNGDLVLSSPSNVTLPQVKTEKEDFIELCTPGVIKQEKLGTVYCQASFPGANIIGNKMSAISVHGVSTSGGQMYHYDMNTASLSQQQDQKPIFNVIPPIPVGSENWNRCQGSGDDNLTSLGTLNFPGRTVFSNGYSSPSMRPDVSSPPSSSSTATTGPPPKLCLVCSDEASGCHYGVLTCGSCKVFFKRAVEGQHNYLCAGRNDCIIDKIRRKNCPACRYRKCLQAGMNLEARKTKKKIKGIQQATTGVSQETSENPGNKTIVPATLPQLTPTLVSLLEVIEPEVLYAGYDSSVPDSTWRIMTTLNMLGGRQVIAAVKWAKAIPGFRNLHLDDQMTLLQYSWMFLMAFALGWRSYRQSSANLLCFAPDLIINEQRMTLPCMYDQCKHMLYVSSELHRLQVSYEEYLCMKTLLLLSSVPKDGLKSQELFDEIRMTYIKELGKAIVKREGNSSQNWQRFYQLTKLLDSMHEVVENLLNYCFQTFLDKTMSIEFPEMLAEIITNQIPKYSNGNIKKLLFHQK

[3] = molecular target: T3, GFP protein (Aequorea victoria (Water jellyfish) …, UniProt P42212 1-238 = GFP); assay: BLI
T3 construct: Purified GFP used as BLI analyte, in crystals and in NANEX; also called Green fluorescent protein
Protocol: (§3) Streptavidin-coated Octet® biosensors were used to capture biotinylated Nanobodies (1 μg/mL). Binding and dissociation isotherms at several GFP concentrations (1 nM to 5 μM range) were analyzed on an OctetRed (molecular devices). All assays were performed in Hepes 25 mM pH7.5, NaCl 150 mM supplemented with BSA 0.1% and Tween²⁰ 0.005% at room temperature.

[4] = molecular target: T3, GFP protein; assay: BLI (OctetRed), biotinylated Nb on streptavidin sensor, GFP as analyte
Protocol: as §3

[5] = molecular target: T4, CA16976 eGFP-tagged human recombinant androgen receptor (eGFP-6His-TEV-ARb) (human); assay: NANEX column: HEK293T lysate with GFP-ARb on immobilised CA15816; A280/A488
T4 construct: Expressed in HEK293T cells, captured from the lysate; also called GFP-ARb; eGFP-ARb
T4 sequence (chain, as listed by the source limits assumed): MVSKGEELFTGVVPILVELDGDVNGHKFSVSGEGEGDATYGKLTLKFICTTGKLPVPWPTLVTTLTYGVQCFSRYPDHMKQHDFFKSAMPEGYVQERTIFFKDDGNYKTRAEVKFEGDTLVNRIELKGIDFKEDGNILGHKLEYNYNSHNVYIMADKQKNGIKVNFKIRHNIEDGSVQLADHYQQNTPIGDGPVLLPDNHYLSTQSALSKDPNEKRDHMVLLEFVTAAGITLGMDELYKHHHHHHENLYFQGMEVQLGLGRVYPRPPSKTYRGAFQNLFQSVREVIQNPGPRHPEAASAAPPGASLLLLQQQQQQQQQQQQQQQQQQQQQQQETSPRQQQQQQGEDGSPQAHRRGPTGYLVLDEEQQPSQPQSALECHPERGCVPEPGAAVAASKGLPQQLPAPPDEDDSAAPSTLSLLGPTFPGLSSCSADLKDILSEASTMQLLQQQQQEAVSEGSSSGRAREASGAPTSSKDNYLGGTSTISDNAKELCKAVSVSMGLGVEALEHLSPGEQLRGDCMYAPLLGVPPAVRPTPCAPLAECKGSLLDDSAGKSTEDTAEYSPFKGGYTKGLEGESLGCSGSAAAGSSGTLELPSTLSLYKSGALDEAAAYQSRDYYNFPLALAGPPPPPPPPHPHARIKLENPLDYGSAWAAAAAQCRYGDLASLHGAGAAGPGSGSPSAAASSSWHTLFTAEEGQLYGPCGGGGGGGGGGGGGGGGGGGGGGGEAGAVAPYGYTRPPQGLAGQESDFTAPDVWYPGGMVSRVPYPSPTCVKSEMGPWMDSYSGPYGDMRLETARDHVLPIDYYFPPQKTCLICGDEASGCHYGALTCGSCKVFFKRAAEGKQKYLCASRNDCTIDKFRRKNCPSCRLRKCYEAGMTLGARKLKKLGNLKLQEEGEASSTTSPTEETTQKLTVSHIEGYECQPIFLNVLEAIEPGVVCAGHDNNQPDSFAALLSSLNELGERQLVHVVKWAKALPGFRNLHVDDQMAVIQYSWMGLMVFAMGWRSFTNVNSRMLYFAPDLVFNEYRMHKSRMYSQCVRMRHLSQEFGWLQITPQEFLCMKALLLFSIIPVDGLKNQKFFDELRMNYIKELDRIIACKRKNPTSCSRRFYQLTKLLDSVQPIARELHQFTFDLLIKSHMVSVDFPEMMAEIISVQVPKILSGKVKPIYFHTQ
Protocol: 10 mL of lysate was injected on this NANEX column. […] FIG. 45A) The elution of GFP-GR by this stripper was monitored by following the absorbance at 280 nm and 488 nm. […] The right peak eluted upon regeneration with 200 mM glycine at pH 2.3. FIG. 45B) SDS-PAGE of the different purification fractions, molecular weight marker (PageRuler™ Prestained Protein Ladder).
Recombinant human eGFP-6His-TEV-AR was expressed using a pcDNA3.1+N-eGFP vector transfected into human HEK239T cells. Cells were transfected in 150×21 mm dishes (Nunclon™ Delta) using X-tremeGENE™ 9 DNA Transfection Reagent (XTG9-RO Roche) with a ratio 3:1 μL/μg DNA. After transfection, HEK239T cells were grown for 48 h at 37° C. and 5% CO₂. Cells from 3 plates were collected by pipetting and centrifugation, washed with PBS and resuspended in 10 mL lysis buffer 10 mM Hepes 7.5, 2.5 mM DTT, 1 mM EDTA, 20 mM Na₂MoO₄, 10% Glycerol (supplemented with protease inhibitors) before lysis using a Dounce homogenizer. […] Next, the column was washed with 10 CVs of washing buffer (10 mM Hepes 7.5, 2.5 mM DTT, 1 mM EDTA, 20 mM Na₂MoO₄, 10% Glycerol) using a syringe.

[6] = molecular target: EPEA-tagged GFP (GFP-EPEA) protein; assay: BLI; analyte not stated
[7] = molecular target: T1, native human coagulation factor IX; assay: displacement of native factor IX from immobilised CA11143 (NANEX column) by 1 mg MegaBody CA16383; A280, SDS-PAGE and western blot [D00046 FIG. 42B; D00047 FIG. 42C]
Protocol: as §1, §2

[8] = molecular target: T1, native human coagulation factor IX; assay: NANEX column: 30 mL human recovered plasma recirculated over immobilised MegaBody CA16388; A280, SDS-PAGE and western blot [D00048 FIG. 43B; D00048 FIG. 43C]
Protocol: The purification process was monitored by measuring the absorbance at 280 nm (Protein absorption) (FIGS. 43A-43C). The elution peak was collected in 750 μl fractions and analysed in SDS/PAGE gel and western blot including commercial human coagulation factor IX as a control (FIGS. 43A-43C).

[9] = molecular target: T5, FmIH_lectin_mCherry_his (CA17337); assay: NANEX column: lysate with FmlH_lectin_mCherry_his on immobilised CA17341; A280/A585 and SDS-PAGE [D00045 FIG. 41B]
T5 construct: also called mCherry-fusion protein

[10] = molecular target: mCherry; assay: BLI
Protocol: (§4) Streptavidin-coated Octet® biosensors were used to capture biotinylated Nanobodies (1 μg/mL). […] All assays were performed in Hepes 25 mM pH7.5, NaCl 150 mM supplemented with BSA 0.1% and Tween²⁰ 0.005% at room temperature.

[11] = molecular target: mCherry; assay: BLI (OctetRed), biotinylated Nb on streptavidin sensor, mCherry 8.23-222 nM
Protocol: as §4

T1 sequence (P00740 47-461 limits assumed): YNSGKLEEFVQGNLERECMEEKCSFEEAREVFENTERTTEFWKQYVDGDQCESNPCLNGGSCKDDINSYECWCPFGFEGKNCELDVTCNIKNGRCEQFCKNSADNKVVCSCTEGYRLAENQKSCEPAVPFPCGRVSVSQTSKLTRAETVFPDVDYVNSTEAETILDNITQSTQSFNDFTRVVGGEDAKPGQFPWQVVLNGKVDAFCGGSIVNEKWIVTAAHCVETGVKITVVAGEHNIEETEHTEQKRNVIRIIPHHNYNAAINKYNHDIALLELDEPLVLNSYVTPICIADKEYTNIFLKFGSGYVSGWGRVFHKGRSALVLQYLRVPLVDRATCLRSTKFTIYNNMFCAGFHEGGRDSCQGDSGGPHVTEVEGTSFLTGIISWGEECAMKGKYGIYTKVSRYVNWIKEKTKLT

B1: CA11143 FIX Nanobody trapper (including C-terminal 6xHis+EPEA tag) (VHH)
VHH: QVQLVESGGALVQPGGSLRLSCAASGFTFDNYAMNWVRQAPGKGLEWVSGINWNGRNTYYAESVKDRFTISRDNAKNTLYLQMNSLKSEDTAVYYCAKEIITSGGPTGKYDYWGQGTQVTVSS
notes: also called Nb CA11143
B1: binds [1].

B2: CA15816 GFP-NbT54A/V55A (C-term. 6xHis + EPEA) (VHH)
VHH: QVQLVESGGGLVQAGGSLRLSCAASGRTFSTAAMGWFRQAPGKERDFVAGIYWAAGSTYYADSAKGRFTISRDNAKNTVYLQMDSLKPEDTAVYYCAARRRGFTLAPTRANEYDYWGQGTQVTVSS
modifications: biotinylated for BLI
notes: T54A/V55A mutant of CA12760; also called Nb CA15816
B2 was tested, and the binding result [2] was “binds”, the “Half-time ratio (relative to the wt Nb CA12760)” value [3] was 70 fold and the “KD ratio (relative to the wt Nb CA12760)” value [3] was 50 fold. It also gave a Kd [4] of 2.7 nM, a koff [4] of 0.00225 s⁻¹ and a kon [4] of 835000 M⁻¹ s⁻¹. B2: binds [5].

B3: CA4375, EPEA-NbSyn2 (C-term. 6xHis) (VHH)
VHH: QVQLQESGGGSVQAGGSLRLSCAASGIDSSSYCMGWFRQRPGKEREGVARINGLGGVKTAYADSVKDRFTISRDNAENTVYLQMNSLKPEDTAIYYCAAKFSPGYCGGSWSNFGYWGQGTQVTVSS
notes: Selected against human alpha-synuclein; also called monovalent CA4375; EPEA-specific Nanobody
B3 was tested, and the Kd [6] was 60 nM.

B4: CA16383 FIX functionalized Nanobody stripper (MegaBody MbCA10309^YgjK, including C-terminal 6xHis+EPEA tag) (other)
chain: QVQLVESGGGLVKEETQSGLNNYARVVEKGQYDSLEIPAQVAASWESGRDDAAVFGFIDKEQLDKYVANGGKRSDWTVKFAENRSQDGTLLGYSLLQESVDQASYMYSDNHYLAEMATILGKPEEAKRYRQLAQQLADYINTCMFDPTTQFYYDVRIEDKPLANGCAGKPIVERGKGPEGWSPLFNGAATQANADAVVKVMLDPKEFNTFVPLGTAALTNPAFGADIYWRGRVWVDQFWFGLKGMERYGYRDDALKLADTFFRHAKGLTADGPIQENYNPLTGAQQGAPNFSWSAAHLYMLYNDFFRKQASGGGSGGGGSGGGGSGNADNYKNVINRTGAPQYMKDYDYDDHQRFNPFFDLGAWHGHLLPDGPNTMGGFPGVALLTEEYINFMASNFDRLTVWQDGKKVDFTLEAYSIPGALVQKLTAKDVQVEMTLRFATPRTSLLETKITSNKPLDLVWDGELLEKLEAKEGKPLSDKTIAGEYPDYQRKISATRDGLKVTFGKVRATWDLLTSGESEYQVHKSLPVQTEINGNRFTSKAHINGSTTLYTTYSHLLTAQEVSKEQMQIRDILARPAFYLTASQQRWEEYLKKGLTNPDATPEQTRVAVKAIETLNGNWRSPGGAVKFNTVTPSVTGRWFSGNQTWPWDTWKQAFAMAHFNPDIAKENIRAVFSWQIQPGDSVRPQDVGFVPDLIAWNLSPERGGDGGNWNERNTKPSLAAWSVMEVYNVTQDKTWVAEMYPKLVAYHDWWLRNRDHNGNGVPEYGATRDKAHNTESGEMLFTVKKSLRLSCATSGIGFSIYSMGWYRQAPGKERELVASIAGNEDKDYVESVKGRFTISRDYAKNTLYLEMSGLKFEDTAMYYCAAGLRRGVSLTPYYWGQGTQVTVSSHHHHHHEPEA
notes: also called MegaBody CA16383
B4: binds [7].

B5: CA16388 FIX functionalized Nanobody trapper (MegaBody MbCA11143^YgjK, including C-terminal 6xHis+EPEA tag) (other)
chain: QVQLVESGGGLVKEETQSGLNNYARVVEKGQYDSLEIPAQVAASWESGRDDAAVFGFIDKEQLDKYVANGGKRSDWTVKFAENRSQDGTLLGYSLLQESVDQASYMYSDNHYLAEMATILGKPEEAKRYRQLAQQLADYINTCMFDPTTQFYYDVRIEDKPLANGCAGKPIVERGKGPEGWSPLFNGAATQANADAVVKVMLDPKEFNTFVPLGTAALTNPAFGADIYWRGRVWVDQFWFGLKGMERYGYRDDALKLADTFFRHAKGLTADGPIQENYNPLTGAQQGAPNFSWSAAHLYMLYNDFFRKQASGGGSGGGGSGGGGSGNADNYKNVINRTGAPQYMKDYDYDDHQRFNPFFDLGAWHGHLLPDGPNTMGGFPGVALLTEEYINFMASNFDRLTVWQDGKKVDFTLEAYSIPGALVQKLTAKDVQVEMTLRFATPRTSLLETKITSNKPLDLVWDGELLEKLEAKEGKPLSDKTIAGEYPDYQRKISATRDGLKVTFGKVRATWDLLTSGESEYQVHKSLPVQTEINGNRFTSKAHINGSTTLYTTYSHLLTAQEVSKEQMQIRDILARPAFYLTASQQRWEEYLKKGLTNPDATPEQTRVAVKAIETLNGNWRSPGGAVKFNTVTPSVTGRWFSGNQTWPWDTWKQAFAMAHFNPDIAKENIRAVFSWQIQPGDSVRPQDVGFVPDLIAWNLSPERGGDGGNWNERNTKPSLAAWSVMEVYNVTQDKTWVAEMYPKLVAYHDWWLRNRDHNGNGVPEYGATRDKAHNTESGEMLFTVKKSLRLSCAASGFTFDNYAMNWVRQAPGKGLEWVSGINWNGRNTYYAESVKDRFTISRDNAKNTLYLQMNSLKSEDTAVYYCAKEIITSGGPTGKYDYWGQGTQVTVSSHHHHHHEPEA
notes: also called MegaBody CA16388
B5: binds [8].

B6: CA17341 mCherry Nanobody trapper (CA17302 mutant) (including C-terminal 6xHis+EPEA tag) (VHH)
VHH: QVQLVESGGGLVQAGGSLRLSCVASGLPFSRYNMAWFRQAPGKEREFVADIDWSGDSTYDLDSVKGRFTISRDNAKNTVYLQMSSLLPEDTAVYYCAAHFKFALAQRIKWGDMDYWGKGTQVTVSS
modifications: biotinylated for BLI
notes: also called Nb CA17341
With B6 the binding result [9] was “binds”, the “Half time ratio (relative to wt CA17302)” value [10] was 2.26 fold and the “KD ratio (relative to wt CA17302)” value [10] was 2.4 fold. It also gave a Kd [11] of 4.05 nM, a koff [11] of 0.00231 s⁻¹ and a kon [11] of 601000 M⁻¹ s⁻¹.

Source: patent US20240027467A1 (VIB VZW, published 2024)
